The subject of this data set is MeCP2 (Homo sapiens). Description: cell_activity. The conditions noted are these: 5mC at CpG (SssI); S2 cells with Sp1; methylated promoter alone repressed 3-fold; binding inferred from repression.

In turn, cyclin A1 promoter, SssI methylated registered an activity (fold repression) of 12.
